What was measured:
Assay in all cases: IEDB peptide-MHC binding, purified MHC/competitive/radioactivity; filed as Kd, often an IC50 or EC50 that approximates it; ≥ and ≤ were set here for values at or beyond the usual limits of such assays
HLA-A*31:01 = target: HLA-A*31:01
HLA-A*33:01 = target: HLA-A*33:01
HLA-A*03:01 = target: HLA-A*03:01
HLA-A*11:01 = target: HLA-A*11:01
HLA-A*68:01 = target: HLA-A*68:01
[1] = source organism: Mammarenavirus choriomeningitidis
[2] = source organism: Lymphocytic choriomeningitis virus (strain Armstrong)
[3] = source organism: Vaccinia virus WR
[4] = source organism: Mammarenavirus lassaense
[5] = source organism: Dengue virus 2 Jamaica/1409/1983
[6] = source organism: SARS coronavirus Tor2
[7] = source organism: Dengue virus 3 Martinique/1243/1999
[8] = source organism: Dengue virus 1 Brazil/97-11/1997
[9] = source organism: Mammarenavirus machupoense

| Sequence | Kd (HLA-A*31:01; [3]) | Kd (HLA-A*33:01; [3]) | Kd (HLA-A*03:01; [3]) | Kd (HLA-A*11:01; [3]) | Kd (HLA-A*68:01; [3]) | further results |
| --- | --- | --- | --- | --- | --- | --- |
| SAFNKKHFDH | – | – | – | – | – | Kd (HLA-A*31:01; [1]): 12500 nM; Kd (HLA-A*33:01; [1]): ≥ 28700 nM; Kd (HLA-A*03:01; [1]): ≥ 22300 nM; Kd (HLA-A*11:01; [1]): 1250 nM; Kd (HLA-A*68:01; [1]): ≥ 36600 nM |
| IYKGVYQFK | – | – | – | – | – | Kd (HLA-A*31:01; [2]): 3.21 nM; Kd (HLA-A*33:01; [2]): 13.5 nM; Kd (HLA-A*03:01; [2]): 198 nM; Kd (HLA-A*11:01; [2]): 718 nM; Kd (HLA-A*68:01; [2]): 8810 nM |
| LMIVAKHER | – | – | – | – | – | Kd (HLA-A*31:01; source organism: Dengue virus 4 Dominica/814669/1981): 49.8 nM |
| ILSKIPYLR | 2.54 nM | 97.4 nM | 605 nM | 30.7 nM | 13.3 nM | – |
| VCSFYADPK | – | – | – | – | – | Kd (HLA-A*31:01; [4]): ≥ 27200 nM; Kd (HLA-A*33:01; [4]): ≥ 77700 nM; Kd (HLA-A*03:01; [4]): 3840 nM; Kd (HLA-A*11:01; [4]): 3130 nM; Kd (HLA-A*68:01; [4]): 5680 nM |
| IMKNTTNTRR | – | – | – | – | – | Kd (HLA-A*31:01; [5]): 13.9 nM |
| IISRTRLYDY | 13200 nM | ≥ 70000 nM | 225 nM | 1270 nM | 4360 nM | – |
| ELAELLEMK | 15900 nM | 1210 nM | 3800 nM | 1270 nM | 13.3 nM | – |
| ALALLLLDR | – | – | – | – | – | Kd (HLA-A*31:01; [6]): 8000 nM; Kd (HLA-A*33:01; [6]): ≥ 51700 nM; Kd (HLA-A*03:01; [6]): 3150 nM; Kd (HLA-A*11:01; [6]): 7530 nM; Kd (HLA-A*68:01; [6]): ≥ 52900 nM |
| IVASVNMVSR | – | – | – | – | – | Kd (HLA-A*68:01; [7]): 6.75 nM |
| FLISGKGIGK | – | – | – | – | – | Kd (HLA-A*03:01; [7]): 53.2 nM |
| VSILLSSLLK | – | – | – | – | – | Kd (HLA-A*03:01; [8]): 10.9 nM; Kd (HLA-A*11:01; [8]): 49.2 nM |
| NLDLFMSHVK | 7760 nM | 2880 nM | 19.4 nM | 68.8 nM | 852 nM | – |
| SNMLSIINK | – | – | – | – | – | Kd (HLA-A*11:01; [7]): 116 nM |
| NGQFIHFYR | – | – | – | – | – | Kd (HLA-A*31:01; [2]): 3.67 nM; Kd (HLA-A*33:01; [2]): ≥ 50400 nM; Kd (HLA-A*03:01; [2]): 8350 nM; Kd (HLA-A*11:01; [2]): 2530 nM; Kd (HLA-A*68:01; [2]): 13.9 nM |
| RVSTVQQLTK | – | – | – | – | – | Kd (HLA-A*03:01; [5]): 17.5 nM; Kd (HLA-A*11:01; [5]): 204 nM |
| LIIGPMFSGK | 1270 nM | 2560 nM | 6.17 nM | 1.81 nM | 9.92 nM | – |
| KSNILMWNK | 1.01 nM | 13700 nM | 27.5 nM | 2.25 nM | 2870 nM | – |
| DAVRAFLLR | 484 nM | 23.4 nM | ≥ 34400 nM | 13700 nM | 0.831 nM | – |
| LIDLAFLIK | 2330 nM | ≥ 77700 nM | 3480 nM | 462 nM | ≥ 77700 nM | – |
| DTNLITCNDH | – | – | – | – | – | Kd (HLA-A*31:01; [9]): ≥ 70000 nM; Kd (HLA-A*33:01; [9]): ≥ 30800 nM; Kd (HLA-A*03:01; [9]): ≥ 70000 nM; Kd (HLA-A*11:01; [9]): ≥ 69700 nM; Kd (HLA-A*68:01; [9]): ≥ 70100 nM |
